Target: GST-Dpn bHLH (UniProt Q26263 1-108)
Experiment: EMSA

Sequence of GST-Dpn bHLH (Q26263 1-108): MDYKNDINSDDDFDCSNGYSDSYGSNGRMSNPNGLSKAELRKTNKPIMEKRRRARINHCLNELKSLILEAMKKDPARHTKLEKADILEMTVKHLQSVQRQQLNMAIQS

| Binder | binding result |
| --- | --- |
| (1+2)m (dsDNA) DNA 1: GATCTTAGGTAGCCCCCGGGACTGGCACAGGCACCTTGATC DNA 2: GATCAAGGTGCCTGTGCCAGTCCCGGGGGCTACCTAAGATC | no binding |
| 3Cm (dsDNA) DNA 1: GATCCCTGGCACCCTTCCTGATC DNA 2: GATCAGGAAGGGTGCCAGGGATC | no binding |
| 4Cm (dsDNA) DNA 1: GATCTTGCCAAGCTCCACGATC DNA 2: GATCGTGGAGCTTGGCAAGATC | no binding |
